{
  "source": "patent US6361968",
  "about": "(US Dept. of Health and Human Services, dated 1997)",
  "binders": {"B1": {"name": "4heptadFos (c-Fos with the basic region replaced by four acidic heptad repeats) (designed binder)", "chain": "MASMTGGQQMGRDPDLEQRAEELARENEELEKEAEELEQENAELEAETDQLEDEKSALQTEIANLLKEKEKLEFILAAHRPACKIP", "notes": "how the two entries divide the protein is not explained; also called aZIP 4heptadFos; aFos"}, "B2": {"name": "c-Myc bHLH protein (other)", "chain": "NDKRRTHNVLERQRRNELKRSFFALRDQIPELENNEKAPKVVILKKATAYILSIQADEHKLTSEKDLLRKRREQLKHKLEQLRNSGA"}, "B3": {"name": "3heptad-F (designed binder)", "chain": "ASMTGGQQMGRDPGGGLARENEELEKEAEELEQENAELEQEVLELESRNDRLRKEVEQLERELDTLRGIFRQLPESSLVKAMGNCA", "notes": "also called aZIP 3heptadF (CEBP specific)"}},
  "key": {"c-Jun (unmodified) [1]": {"target": "T1, c-Jun (unmodified) (UniProt P05412 241-331, limits assumed)", "T1 sequence (P05412 241-331 limits assumed)": "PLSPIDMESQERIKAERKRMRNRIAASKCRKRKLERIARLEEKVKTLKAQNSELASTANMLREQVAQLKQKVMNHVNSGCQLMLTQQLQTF", "assay": "thermal melt of the mixture (FIG. 4)"}, "c-Jun (unmodified) [2]": {"target": "T1, c-Jun (unmodified)", "assay": "from thermal melts of FIG. 4, Kd at 37 C"}, "[3]": {"target": "T2, C/EBP bZIP domain (GCN4-C/EBP chimeric protein) (C/EBP: rat liver; GCN4: yeast)", "T2 construct": "Made in E. coli; forms a homodimer; also called C/EBP-C/EBP; wild type C/EBP", "T2 chain": "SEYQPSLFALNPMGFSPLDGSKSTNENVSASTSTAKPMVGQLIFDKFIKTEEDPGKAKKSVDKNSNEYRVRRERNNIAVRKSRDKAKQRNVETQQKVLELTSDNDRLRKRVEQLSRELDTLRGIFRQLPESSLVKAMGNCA", "assay": "thermal melt of the mixture equals the sum of the two homodimer curves (FIG. 5A)"}, "[4]": {"target": "T3, 0heptadMax (dimerization domain of Max without an acidic extension) (UniProt P61244 44-113, limits assumed)", "T3 construct": "domain: dimerization domain; also called OheptadMax", "T3 sequence (P61244 other isoform, or with tags, fused parts or gaps limits assumed)": "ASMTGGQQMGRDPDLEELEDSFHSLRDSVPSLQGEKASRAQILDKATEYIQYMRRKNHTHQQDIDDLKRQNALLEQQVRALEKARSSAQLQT", "assay": "heterodimer with c-Myc, dimerization study of FIG. 9"}, "[5]": {"target": "the molecule itself", "assay": "CD thermal melt, homodimer, 150 mM KCl", "experimental": "(§1) CD analyses were performed as described in Materials and Methods of D. Krylov et al., 1994, *EMBO J.,* 13:2849–2861. T_m values were calculated as described in D, Krylov et al., 1994, Ibid, converted to K_{d(25)} and $\\Delta G(25)$ using a $\\Delta C_p$ of –0.96 kcal/mol° C.^-1 calculated from a T_m versus $\\Delta H$ plot for all of the proteins as described herein. All thermal melts were reversible.\n(§2) Table 1 presents the melting temperature (T_m,° C.), $\\Delta G$ and k_d at 25° C. for CD thermal melts of a variety of proteins either as homodimers or an equimolar mixture of two proteins. […] The (L) denotes 'low' salt conditions (50 mM KCl, 25 mM Tris pH 8.0, 0.5 mM EDTA, 1 mM DTT) and the (H) denotes regular salt conditions (12.5 mM potassium phosphate, pH 7.4, 150 mM KCl, 0.25 mM EDTA, and 0.5 mM DTT). The latter conditions were used in Table 2. \"0heptad-F\" represents the F zipper with the basic region deleted. The RMS error in $\\Delta G$ is 0.2 kcal/mol and 0.5 kcal/mol for homo- and heterodimers respectively."}, "[6]": {"target": "T2, C/EBP bZIP domain (GCN4-C/EBP chimeric …)", "assay": "CD thermal melt, equimolar mixture, 150 mM KCl", "experimental": "as §2\n(§3) The two chimeras were mixed with the four different length acidic extensions appended to the F zipper and their stability was determined from CD thermal melts."}, "[7]": {"target": "T4, VBP-C/EBP chimeric protein (VBP: chicken; C/EBP: rat liver)", "T4 chain": "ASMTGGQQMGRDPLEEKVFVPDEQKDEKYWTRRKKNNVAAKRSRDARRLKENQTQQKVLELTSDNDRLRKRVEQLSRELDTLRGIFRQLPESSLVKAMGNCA", "assay": "CD thermal melt, equimolar mixture, 150 mM KCl", "experimental": "as §2, §3"}, "[8]": {"target": "T5, GBF-C/EBP chimeric protein (GBF: Arabidopsis thaliana; C/EBP: rat …)", "T5 chain": "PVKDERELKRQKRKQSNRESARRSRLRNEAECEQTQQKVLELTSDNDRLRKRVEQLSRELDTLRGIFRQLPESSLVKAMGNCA", "assay": "CD thermal melt, equimolar mixture, 150 mM KCl", "experimental": "as §2, §3"}, "[9]": {"target": "the molecule itself", "assay": "CD thermal melt, homodimer, 150 mM KCl, Kd at 25 C", "experimental": "as §1, §2"}, "[10]": {"target": "T2, C/EBP bZIP domain (GCN4-C/EBP chimeric …)", "assay": "CD thermal melt, equimolar mixture, 150 mM KCl, Kd at 25 C", "experimental": "as §2, §3"}, "[11]": {"target": "T4, VBP-C/EBP chimeric protein", "assay": "CD thermal melt, equimolar mixture, 150 mM KCl, Kd at 25 C", "experimental": "as §2, §3"}, "[12]": {"target": "T5, GBF-C/EBP chimeric protein", "assay": "CD thermal melt, equimolar mixture, 150 mM KCl, Kd at 25 C", "experimental": "as §2, §3"}, "bZIP VBP protein": {"target": "T6, bZIP VBP protein (chicken, UniProt Q92172 235-319, limits assumed)", "T6 sequence (looked up)": "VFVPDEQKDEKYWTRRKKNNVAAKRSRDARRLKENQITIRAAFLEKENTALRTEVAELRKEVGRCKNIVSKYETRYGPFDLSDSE", "assay": "thermal melt of the mixture equals the sum of the two homodimer curves (FIG. 5B)"}},
  "data": [
    {"binder": "B1", "values": [
      {"measurement": "Tm", "setting": "c-Jun (unmodified) [1]", "result": 61, "unit": "°C"},
      {"measurement": "Kd", "setting": "c-Jun (unmodified) [2]", "result": 6, "unit": "nM"},
      {"measurement": "binding result", "setting": "[3]", "result": "no binding"}
    ]},
    {"binder": "B2", "values": [
      {"measurement": "Kd", "setting": "[4]", "result": 0.6, "unit": "nM"}
    ]},
    {"binder": "B3", "values": [
      {"measurement": "deltaG at 25 C", "setting": "[5]", "result": -7.9, "unit": "kcal/mol"},
      {"measurement": "Tm", "setting": "[6]", "result": 63.8, "unit": "°C"},
      {"measurement": "deltaG at 25 C", "setting": "[6]", "result": -14.3, "unit": "kcal/mol"},
      {"measurement": "Tm", "setting": "[7]", "result": 64.2, "unit": "°C"},
      {"measurement": "deltaG at 25 C", "setting": "[7]", "result": -14.7, "unit": "kcal/mol"},
      {"measurement": "Tm", "setting": "[8]", "result": 64, "unit": "°C"},
      {"measurement": "deltaG at 25 C", "setting": "[8]", "result": -14.2, "unit": "kcal/mol"},
      {"measurement": "Kd", "setting": "[9]", "result": 2000, "unit": "nM"},
      {"measurement": "Kd", "setting": "[10]", "result": 0.04, "unit": "nM"},
      {"measurement": "Kd", "setting": "[11]", "result": 0.02, "unit": "nM"},
      {"measurement": "Kd", "setting": "[12]", "result": 0.04, "unit": "nM"},
      {"measurement": "binding result", "setting": "bZIP VBP protein", "result": "no binding"}
    ]}
  ]
}
